From US20250320281A1

Legend:
Experiment in all cases: cell-based or functional assay
[1] = biological target: HIV-1 Env of isolate LAVI_C22 (HIV-1)
[2] = biological target: HIV-1 Env of pseudovirus MGRM-G-014 (HIV-1, clade G isolate MGRM-G-014)
[3] = biological target: HIV-1 Env of isolate PVO.4 (Acute), clade B, on pseudovirus (HIV-1)
[4] = biological target: HIV-1 Env of isolate MGRM-D-021 (clade D pseudovirus) (HIV-1)
[5] = biological target: HIV-1 Env of isolate APV_6, clade B, on pseudovirus (HIV-1)
[6] = biological target: HIV-1 JRCSF envelope glycoprotein (Env) on pseudovirus (HIV-1) (UniProt P20871)
[7] = biological target: HIV-1 envelope glycoprotein (Env) of isolate MGRM-A-003, clade A (HIV-1)
[8] = biological target: HIV-1 Env of pseudovirus MGRM-AE-002 (clade CRF01_AE) (HIV-1)
[9] = biological target: HIV-1 94UG103 envelope glycoprotein (Env) on pseudovirus (HIV-1)
[10] = biological target: HIV-1 envelope glycoprotein (Env) of isolate MGRM-A-010, clade A (HIV-1)
[11] = biological target: HIV-1 Env of pseudovirus MGRM-F1-010 (HIV-1)
[12] = biological target: HIV-1 Env of isolate 98CN009 (CRF07 BC) (HIV-1 isolate 98CN009)
[13] = biological target: HIV-1 Env of pseudovirus MGRM-Chronic-B-023 (HIV-1)
[14] = biological target: HIV-1 Env of pseudovirus MGRM-AE-007 (clade CRF01_AE) (HIV-1)
[15] = biological target: HIV-1 Env of isolate 98CN006 (CRF08 BC) (HIV-1 isolate 98CN006)
[16] = biological target: HIV-1 Env of isolate MGRM-D-004 (clade D pseudovirus) (HIV-1)
[17] = biological target: HIV-1 92RW020 envelope glycoprotein (Env) on pseudovirus (HIV-1)
[18] = biological target: envelope protein of aMLV pseudovirus (negative control)
[19] = biological target: HIV-1 envelope glycoprotein (Env) of isolate MGRM-A-014, clade A (HIV-1)

Chain of 1443_C16 (PG16) (TCN-116) (antibody) (VH): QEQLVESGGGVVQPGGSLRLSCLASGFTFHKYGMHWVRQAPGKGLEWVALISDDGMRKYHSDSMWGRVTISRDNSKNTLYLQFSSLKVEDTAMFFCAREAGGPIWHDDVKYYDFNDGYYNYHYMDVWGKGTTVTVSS
Chain of 1443_C16 (PG16) (TCN-116) (antibody) (VL): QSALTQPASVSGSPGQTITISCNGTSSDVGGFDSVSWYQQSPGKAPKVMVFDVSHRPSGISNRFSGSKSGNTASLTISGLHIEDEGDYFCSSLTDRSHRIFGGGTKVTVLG

2F5 (antibody)
IC50 [1]: > 50 µg/mL
IC50 (µg/ml), pseudovirus neutralization [2]: 9.65 µg/mL
IC50 (µg/ml), pseudovirus neutralization [3]: > 50 µg/mL
IC50 (µg/ml), pseudovirus neutralization [4]: > 50 µg/mL
IC50 (µg/ml), pseudovirus neutralization [5]: 0.25 µg/mL
IC50, pseudovirus neutralization [6]: 3.36 µg/mL
IC90 (pseudovirus neutralization) [6]: 25.3 µg/mL
IC50 (µg/ml), pseudovirus neutralization [7]: 7.37 µg/mL
IC50 [8]: 0.31 µg/mL
IC50, pseudovirus neutralization [9]: 3.79 µg/mL
IC50 (µg/ml), pseudovirus neutralization [10]: 20.8 µg/mL
IC50 (µg/ml), pseudovirus neutralization [11]: 14.6 µg/mL
IC50 (µg/ml), pseudovirus neutralization [12]: > 50 µg/mL
IC50 (µg/ml), pseudovirus neutralization [13]: 0.1 µg/mL
IC50 [14]: 0.07 µg/mL
IC50 (µg/ml), pseudovirus neutralization [15]: > 50 µg/mL
IC50 (µg/ml), pseudovirus neutralization [16]: 2.3 µg/mL
IC50, pseudovirus neutralization [17]: 3.37 µg/mL
IC50 (µg/ml), pseudovirus neutralization [18]: > 50 µg/mL
IC50 (µg/ml), pseudovirus neutralization [19]: 1.43 µg/mL

2G12 (antibody)
IC50 [1]: > 50 µg/mL
IC50 (µg/ml), pseudovirus neutralization [2]: > 50 µg/mL
IC50 (µg/ml), pseudovirus neutralization [3]: 0.8 µg/mL
IC50 (µg/ml), pseudovirus neutralization [4]: 23 µg/mL
IC50 (µg/ml), pseudovirus neutralization [5]: 1.9 µg/mL
IC50, pseudovirus neutralization [6]: 0.66 µg/mL
IC90 (pseudovirus neutralization) [6]: 5.38 µg/mL
IC50 (µg/ml), pseudovirus neutralization [7]: > 50 µg/mL
IC50 [8]: > 50 µg/mL
IC50, pseudovirus neutralization [9]: > 50 µg/mL
IC50 (µg/ml), pseudovirus neutralization [10]: 17 µg/mL
IC50 (µg/ml), pseudovirus neutralization [12]: > 50 µg/mL
IC50 (µg/ml), pseudovirus neutralization [13]: 0.16 µg/mL
IC50 [14]: > 50 µg/mL
IC50 (µg/ml), pseudovirus neutralization [15]: > 50 µg/mL
IC50 (µg/ml), pseudovirus neutralization [16]: > 50 µg/mL
IC50, pseudovirus neutralization [17]: 0.56 µg/mL
IC50 (µg/ml), pseudovirus neutralization [18]: > 50 µg/mL
IC50 (µg/ml), pseudovirus neutralization [19]: > 50 µg/mL

4E10 (antibody)
IC50 [1]: 2.02 µg/mL
IC50 (µg/ml), pseudovirus neutralization [2]: 13.7 µg/mL
IC50 (µg/ml), pseudovirus neutralization [3]: 18.3 µg/mL
IC50 (µg/ml), pseudovirus neutralization [4]: 13.3 µg/mL
IC50 (µg/ml), pseudovirus neutralization [5]: 1.1 µg/mL
IC50, pseudovirus neutralization [6]: 6 µg/mL
IC90 (pseudovirus neutralization) [6]: 44.1 µg/mL
IC50 (µg/ml), pseudovirus neutralization [7]: 5.94 µg/mL
IC50 [8]: 0.55 µg/mL
IC50, pseudovirus neutralization [9]: 9.7 µg/mL
IC50 (µg/ml), pseudovirus neutralization [10]: 14.4 µg/mL
IC50 (µg/ml), pseudovirus neutralization [11]: 3.69 µg/mL
IC50 (µg/ml), pseudovirus neutralization [12]: 2.46 µg/mL
IC50 (µg/ml), pseudovirus neutralization [13]: 27.9 µg/mL
IC50 [14]: 0.45 µg/mL
IC50 (µg/ml), pseudovirus neutralization [15]: 1.91 µg/mL
IC50 (µg/ml), pseudovirus neutralization [16]: 1.58 µg/mL
IC50, pseudovirus neutralization [17]: 3.38 µg/mL
IC50 (µg/ml), pseudovirus neutralization [18]: > 50 µg/mL
IC50 (µg/ml), pseudovirus neutralization [19]: 1.74 µg/mL

1443_C16 (PG16) (TCN-116) (antibody)
IC50 [1]: 0.02 µg/mL
IC50 (µg/ml), pseudovirus neutralization [2]: 6.98 µg/mL
IC50 (µg/ml), pseudovirus neutralization [3]: 5.43 µg/mL
IC50 (µg/ml), pseudovirus neutralization [4]: > 50 µg/mL
IC50 (µg/ml), pseudovirus neutralization [5]: 0.29 µg/mL
IC50, pseudovirus neutralization [6]: < 0.0025 µg/mL
IC90 (pseudovirus neutralization) [6]: 0.013 µg/mL
IC50 (µg/ml), pseudovirus neutralization [7]: 2.65 µg/mL
IC50 [8]: 0.01 µg/mL
IC50, pseudovirus neutralization [9]: 0.008 µg/mL
IC50 (µg/ml), pseudovirus neutralization [10]: 0.004 µg/mL
IC50 (µg/ml), pseudovirus neutralization [11]: 0.01 µg/mL
IC50 (µg/ml), pseudovirus neutralization [12]: 5.76 µg/mL
IC50 (µg/ml), pseudovirus neutralization [13]: 0.13 µg/mL
IC50 [14]: 0.04 µg/mL
IC50 (µg/ml), pseudovirus neutralization [15]: > 50 µg/mL
IC50 (µg/ml), pseudovirus neutralization [16]: 0.01 µg/mL
IC50, pseudovirus neutralization [17]: 0.004 µg/mL
IC50 (µg/ml), pseudovirus neutralization [18]: > 50 µg/mL
IC50 (µg/ml), pseudovirus neutralization [19]: 20.3 µg/mL
